# According to patent US12043671B2, “Antibodies targeting an amphiregulin-derived cell surface neo-epitope” (Gundersen Lutheran Medical Foundation, Inc., priority 2021, dated 2024):
# T1: cleaved Amphiregulin (Homo sapiens, UniProt P15514)
# T1 construct: tissue BioCoreUSA; host or cells: multiple organ carcinoma tissue microarrays (ten tumour types)
# T1 sequence (P15514 188-252): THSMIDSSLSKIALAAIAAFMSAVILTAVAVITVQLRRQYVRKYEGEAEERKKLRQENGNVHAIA
# Tests used:
# [1] = molecular target: T2, FL AREG (peptide representing uncleaved AREG) (Homo sapiens, UniProt P15514); test: Immunoblot of TRF-conjugated AREG peptides, intact cleavage site; type: binding; details: 1 μg/mL antibody, 200 ng TRF-conjugated peptide
# T2 construct: a peptide spanning this region (SMKTHSMIDSSLSKIAC); host or cells: synthetic peptide conjugated to transferrin
# Procedure: (§1) Monomethyl auristatin E (MMAE) conjugated 1A3 antibody (1A3-VC-PAB-MMAE) was prepared using a kit (CM11409) from CellMosaic Inc. (Woburn, MA, USA) following the manufacturer's instructions. Maleimide-activated valine-citrulline p-aminobenzylcarbamate (VCPAB) MMAE was coupled directly to the antibody after reduction through alkylation.^13 The specificity of 1A3 and 1A3-VC-PAB-MMAE to peptides representing human cleaved-AREG was confirmed by immunoblotting. Briefly, transferrin (TRF) conjugated peptides representing cleaved and uncleaved AREG (200 ng) were electrophoresed on SDS-PAGE gels, transferred to PVDF membrane and probed with 1 μg/mL of 1A3 and 1A3-VC-PAB-MMAE. Horseradish peroxidase-conjugated goat anti-rabbit IgG was used. Antibody binding was detected with enhanced chemiluminescence (ECL; Amersham, Arlington Heights, IL, USA). Furthermore, the characterization and purity of 1A3-VC-PAB-MMAE were analyzed using hydrophobic interaction chromatography (HIC) and size-exclusion chromatography (Cell Mosaic).
# MCF7 cells = test: Internalization and intracellular localization of 1A3-pHrodo, live-cell imaging; type: cell-based, human; details: time course to 2.5 h
# Procedure: In order to study internalization, 1A3 was conjugated with pHrodo iFL Red dye using pHrodo iFL Red Microscale Protein Labeling Kit (P36014, Thermo Fisher Scientific). MCF7 cells were seeded in 12 mm Nunc Glass Bottom Dish, at a density of 1 ×10^5 cells/dish. After allowing the cells to attach overnight, the cells were incubated for 60 min with […] Hoechst dye for nuclei staining and LysoTracker® Green DND-26 (Thermo Fisher Scientific) for lysosomal labeling. The cells were then incubated with 1A3-pHrodo (2 μg/mL) for 20 min at 37° C. After washing the wells with PBS, the cells were supplemented with 1× live-cell imaging solution (Molecular probes, Thermo Fisher Scientific). Fluorescence images were acquired at 30 min intervals for 2.5 h with the Olympus 1×71 inverted fluorescence microscope (Olympus, Shinjuku, Tokyo, Japan). TAPI-2 (20 μM)—pre-treatment was performed overnight, with DMSO serving as a control.
# [2] = molecular target: T3, Trunc AREG (fragment that remains cell-bound after cleavage by ADAM17) (Homo sapiens, UniProt P15514); test: Immunoblot of TRF-conjugated AREG peptides, cleaved mimic; type: binding; details: 1 μg/mL antibody, 200 ng TRF-conjugated peptide
# T3 construct: host or cells: synthetic peptide conjugated to transferrin
# Procedure: as §1
# cleaved Amphiregulin = molecular target: T1, cleaved Amphiregulin; test: Immunohistochemistry on multiple organ carcinoma tissue microarrays
# Procedure: Two multiple organ carcinoma tissue microarrays were purchased from BioCoreUSA (Philadelphia, PA, USA). The slides were deparaffinized in xylene and rehydrated by serial incubations in graded ethanol and then in water in a Histo-Tek® SL Slide Stainer (Sakura Finetek USA, Inc., Torrance, CA, USA). Antigen retrieval was performed in a steamer by boiling slides in a container of citrate buffer (pH 6.0) for 20 min which was then removed for 15 minutes of cooling on the benchtop. Slides were washed in 1× Wash buffer (Dako Agilent, Santa Clara, CA, USA) and endogenous peroxidase was quenched by incubating with Dako Dual Endogenous Enzyme Block for 10 minutes. Slides were washed in 1× Wash buffer, blocked (5% rabbit/10% goat serum in PBS), and immunostained with goat anti-AREG antibody (15 μg/mL; AF262, R&D Systems) or rabbit anti-cleaved AREG 1A3 antibody (10 μg/mL) overnight at 4° C. Slides were washed four times in 1× Wash buffer, followed by incubation for 45 minutes at room temperature in 1:100 dilution of rabbit anti-goat immunoglobulins/HRP or ready-to-use goat antirabbit HRP labelled polymer (Dako). […] The staining intensity was assessed semi-quantitatively using a four-point scale (Negative=0, Low=1, Medium=2, High=3) by two investigators working independently on blinded samples. […]
# [3] = molecular target: T4, peptide representing the neo-epitope of the ADAM17-cleavage product of human AREG (Homo sapiens, UniProt P15514); test: ELISA of rabbit IgG candidates against peptides representing cleaved and full length AREG; type: binding
# T4 construct: host or cells: synthetic peptide
# Text: FIGS. 1A-1C. Isolation of antibodies that selectively recognize a peptide representing cleaved AREG. FIG. 1A: Schematic representation of the AREG cleavage and EGFR activation process, one consequence of which is the internalization of the small transmembrane fragment that remains cell-associated after TACE/ADAM17-mediated cleavage. FIG. 1B: Schematic representation of phage panning strategy using a peptide representing the cleaved AREG neo-epitope adhered to the well and a peptide representing the non-cleaved AREG region in the liquid phase.
# Rabbit monoclonal IgG antibodies specific to cleaved-AREG were identified in contracted screening (Oak Biosciences Inc., Sunnyvale, CA, USA) using a recombinant Rabbit naïve phage display library (scFv format, VK-linker-VH) screening platform after four rounds of panning and ELISA validation. For panning, phage was selected against a peptide modeling the ADAM17-cleaved cell-associated epitope of AREG,^12 represented by the N-terminal region of THSMIDSSLSKI (SEQ ID NO: 2), and counter-selected against a peptide spanning this region (SMKTHSMIDSSLSKIAC; SEQ ID NO: 9), representing uncleaved AREG. […] GMF-1A3, referred to hereafter as simply “1A3”, was the antibody chosen for further characterization in this Example.
molecule,measurement,setting,value
"1A3: Rabbit monoclonal IgG specific to cleaved AREG; VH SEQ ID NO: 3, VL SEQ ID NO: 4 (antibody, V domains shown, 1A3 antibody, Heavy chain; 1A3 antibody, Light chain) VH: QSVKESEGRLVTPGTPLRLTCTVAGYSLSRYHMCWVRQAPGKGLEWIGMIGGSGRTDYASWAKGRFTISKTSTTVDLKITSPTTEDTATYFCSTVYTDSDGDFWGPGTLVTVSS VL: AELDMTQTPSSKSVPVGGTVTINCQASESVYSNDRLAWFQQKPGQPPKLLIYYASTLASGVPSRFKGSGSGTQFTLTISDLECADAATYYCQSCYDMSSYGVAFGGGTELEIL",reaction with peptide representing uncleaved AREG by immunoblot,[1],did not react
same,trafficking after internalization (colocalization of pHrodo and Lysotracker signals),MCF7 cells,trafficked to the lysosome after internalization
same,recognition of truncated AREG peptide by immunoblot,[2],specifically recognized
same,neoplastic cells negative for immunostaining,"cleaved Amphiregulin; 370 evaluable cores, ten tumor types",No neoplastic cells were negative
same,tumors stained in the highest score for cleaved Amphiregulin,"cleaved Amphiregulin; breast, prostate, liver and lung tumors",At least 50%
same,selectivity for cleaved AREG by ELISA,"[3]; IgG format, cleaved vs uncleaved AREG peptide",selectivity for cleaved AREG was confirmed
same,binding ratio of cleaved AREG to intact AREG as determined by ELISA,[3]; compared among the three antibodies,highest binding ratio
